B1: Arabidopsis allene oxide cyclase 2 (AOC2), recombinant, with N-terminal His-tag (enzyme, Arabidopsis thaliana, UniProt Q9LS02 78-253, looked up)
chain: PSKVQELSVYEINELDRHSPKILKNAFSLMFGLGDLVPFTNKLYTGDLKKRVGITAGLCVVIEHVPEKKGERFEATYSFYFGDYGHLSVQGPYLTYEDSFLAITGGAGIFEGAYGQVKLQQLVYPTKLFYTFYLKGLANDLPLELTGTPVPPSKDIEPAPEAKALEPSGVISNYTN
notes: also called AtAOC2; hAOC2; source: E. coli M15 (pQE30), purified (Ni-NTA-agarose); not shown: His-tag, N-terminal, kept
B2: Arabidopsis allene oxide cyclase 2 (AOC2), recombinant, with C-terminal His-tag (enzyme, Arabidopsis thaliana, UniProt Q9LS02 78-253, looked up)
chain: B1 chain
notes: also called AtAOC2; source: E. coli M15 (pQE60), purified (Ni-NTA-agarose); not shown: His-tag, C-terminal, kept

Target: the molecule itself
Assay: SDS-PAGE after mild SDS treatment (SDS-stable oligomer); purified His-tagged protein treated with 1% SDS for 5 min at room temperature or 42 °C, 12% SDS-PAGE, anti-His-tag immunoblot; trimer at about 65 kDa, monomer 26 kDa

Protein | stoichiometry N
B1 | 3
B2 | 3

Reference: paper PMC4844422, “Activity Regulation by Heteromerization of Arabidopsis Allene Oxide Cyclase Family Members” (Plants, 2016)
